Assay results from US20150093336A1 (VIB VZW, published 2015).

T1: Recombinant human MMR (R&D systems) (human, UniProt P22897 19-1383)
T1 construct: Antigen of the PE-ELISA and the SPR; also called hMMR; recombinant hMMR
T1 sequence: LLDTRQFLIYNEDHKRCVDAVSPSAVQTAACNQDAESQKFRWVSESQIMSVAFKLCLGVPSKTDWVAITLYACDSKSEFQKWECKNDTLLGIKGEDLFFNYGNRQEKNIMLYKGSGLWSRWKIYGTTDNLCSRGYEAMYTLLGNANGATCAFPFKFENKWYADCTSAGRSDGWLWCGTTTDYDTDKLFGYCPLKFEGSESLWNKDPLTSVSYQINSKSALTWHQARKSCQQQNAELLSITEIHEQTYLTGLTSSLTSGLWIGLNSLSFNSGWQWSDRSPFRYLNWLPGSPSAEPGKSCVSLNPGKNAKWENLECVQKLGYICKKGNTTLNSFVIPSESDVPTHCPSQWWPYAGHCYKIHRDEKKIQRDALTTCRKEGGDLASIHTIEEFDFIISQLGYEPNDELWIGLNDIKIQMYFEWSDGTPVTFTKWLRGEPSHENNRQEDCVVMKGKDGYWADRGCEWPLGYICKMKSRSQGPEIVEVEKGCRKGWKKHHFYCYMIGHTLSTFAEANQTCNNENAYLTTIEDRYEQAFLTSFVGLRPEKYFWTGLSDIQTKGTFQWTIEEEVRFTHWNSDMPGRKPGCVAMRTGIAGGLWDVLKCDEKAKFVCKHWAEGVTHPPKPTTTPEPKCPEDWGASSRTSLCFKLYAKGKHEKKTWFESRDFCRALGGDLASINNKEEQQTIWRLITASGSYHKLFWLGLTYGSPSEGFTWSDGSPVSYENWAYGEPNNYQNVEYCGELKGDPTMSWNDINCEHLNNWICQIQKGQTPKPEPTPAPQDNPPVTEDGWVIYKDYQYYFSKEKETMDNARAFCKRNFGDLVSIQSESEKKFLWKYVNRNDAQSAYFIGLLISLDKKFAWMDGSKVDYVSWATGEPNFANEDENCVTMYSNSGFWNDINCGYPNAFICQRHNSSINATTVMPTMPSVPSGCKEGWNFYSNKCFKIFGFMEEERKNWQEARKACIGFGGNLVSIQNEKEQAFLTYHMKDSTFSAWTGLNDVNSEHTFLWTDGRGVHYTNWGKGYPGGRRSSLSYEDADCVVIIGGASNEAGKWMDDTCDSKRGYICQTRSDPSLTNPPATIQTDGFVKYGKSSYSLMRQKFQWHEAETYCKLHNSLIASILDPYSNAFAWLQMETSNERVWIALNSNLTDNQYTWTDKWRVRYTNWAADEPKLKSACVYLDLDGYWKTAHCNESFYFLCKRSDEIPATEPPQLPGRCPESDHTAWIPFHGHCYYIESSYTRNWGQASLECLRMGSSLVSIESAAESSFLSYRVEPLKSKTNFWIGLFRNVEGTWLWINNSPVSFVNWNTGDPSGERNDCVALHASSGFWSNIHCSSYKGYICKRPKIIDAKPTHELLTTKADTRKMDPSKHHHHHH

T2: Mouse macrophage mannose receptor (MMR) expressed on tumor-associated macrophages of 3LL-R tumors (mouse, UniProt Q61830 20-1456)
T2 construct: Endogenous receptor on ex vivo isolated CD11b+ Ly6G- TAMs (flow cytometry) and in mouse organs (biodistribution); also called mouse MMR; mMMR
T2 sequence: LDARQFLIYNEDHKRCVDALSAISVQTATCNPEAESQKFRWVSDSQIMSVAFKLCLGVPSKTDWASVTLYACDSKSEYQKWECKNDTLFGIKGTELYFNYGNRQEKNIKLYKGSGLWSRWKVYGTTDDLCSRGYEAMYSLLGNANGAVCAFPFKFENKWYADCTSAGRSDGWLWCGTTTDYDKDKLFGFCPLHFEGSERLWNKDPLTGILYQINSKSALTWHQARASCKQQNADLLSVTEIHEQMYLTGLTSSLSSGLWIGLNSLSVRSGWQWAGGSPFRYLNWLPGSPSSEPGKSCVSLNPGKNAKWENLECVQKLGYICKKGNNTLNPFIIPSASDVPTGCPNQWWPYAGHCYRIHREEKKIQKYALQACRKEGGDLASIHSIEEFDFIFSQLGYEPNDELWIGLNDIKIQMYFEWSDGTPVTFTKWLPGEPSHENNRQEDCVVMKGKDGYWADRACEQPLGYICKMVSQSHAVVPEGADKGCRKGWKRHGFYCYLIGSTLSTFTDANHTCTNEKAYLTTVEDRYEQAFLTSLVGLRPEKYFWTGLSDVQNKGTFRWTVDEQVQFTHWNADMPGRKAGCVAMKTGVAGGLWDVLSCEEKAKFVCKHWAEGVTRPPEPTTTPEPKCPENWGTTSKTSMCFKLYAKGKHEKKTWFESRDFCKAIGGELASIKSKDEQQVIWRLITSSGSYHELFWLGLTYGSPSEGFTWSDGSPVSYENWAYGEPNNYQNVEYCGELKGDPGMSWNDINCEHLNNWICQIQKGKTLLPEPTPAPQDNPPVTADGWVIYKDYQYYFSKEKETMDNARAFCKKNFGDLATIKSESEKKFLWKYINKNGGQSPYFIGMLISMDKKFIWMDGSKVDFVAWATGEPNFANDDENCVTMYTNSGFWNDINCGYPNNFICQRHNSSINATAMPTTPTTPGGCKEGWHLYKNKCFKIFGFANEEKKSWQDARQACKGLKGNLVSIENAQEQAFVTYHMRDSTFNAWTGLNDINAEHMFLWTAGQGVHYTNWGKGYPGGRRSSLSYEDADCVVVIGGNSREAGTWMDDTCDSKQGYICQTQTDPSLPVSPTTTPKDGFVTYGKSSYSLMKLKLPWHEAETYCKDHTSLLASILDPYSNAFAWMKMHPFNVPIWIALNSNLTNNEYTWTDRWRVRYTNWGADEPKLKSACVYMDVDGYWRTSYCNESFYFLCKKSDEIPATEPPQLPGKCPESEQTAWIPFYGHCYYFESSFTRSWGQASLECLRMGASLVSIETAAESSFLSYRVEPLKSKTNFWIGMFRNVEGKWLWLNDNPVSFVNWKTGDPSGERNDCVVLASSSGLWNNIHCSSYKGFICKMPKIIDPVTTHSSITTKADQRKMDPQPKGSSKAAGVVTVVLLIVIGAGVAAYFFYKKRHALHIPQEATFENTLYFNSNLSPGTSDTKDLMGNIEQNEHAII


How the values were obtained:
[1] = molecular target: T1, Recombinant human MMR (R&D systems); test: PE-ELISA, periplasmic extract on coated human MMR, anti-HA detection
[2] = molecular target: T2, Mouse macrophage mannose receptor (MMR) …; test: flow cytometry on CD11b+ Ly6G- TAMs of 3LL-R tumors gated on MHCII, HA-tagged Nb detected with Alexa Fluor 488 anti-HA
Procedure: FIG. 6: MMR-specific Nbs bind to mouse MMR expressed on ex vivo isolated macrophages. 3LL-R tumors were induced by injecting 3×10⁶ cancer cells subcutaneously in C57Bl/6 mice. After 15 days of tumor growth, the tumors were isolated and single cell suspensions were prepared to be analyzed by flow cytometry. The CD11b+Ly6G tumor-associated macrophages (TAM) were further gated on MHCII expression. The histograms depict MMR expression as defined by Nb binding on MHCII^low and MHCII^high TAMs. Shaded histograms depict binding of the negative control Nb BCII10.
For examining specific binding of the anti-MMR sdAbs to mouse MMR, 3LL-R tumors were induced by injecting 3 E6 cancer cells subcutaneously in C57Bl/6 mice. After 15 days of tumor growth, the tumors were isolated, chopped and incubated for 25 minutes (37° C.) with 10 U/ml Collagenase type I, 400 U/ml Collagenase type IV, and 30 U/ml DNAseI (Worthington). Density gradients (Axis-Shield) were used to remove tissue debris and dead cells. sdAbs were added at 10 μg/ml to 1 E6 cells per tube. […] Binding profiles of anti-MMR sdAbs were recorded.

binding result [1] | binding result [2] | Binder
binds |  | NbhMMRm4.83 (VHH, Only tested as periplasmic extract in PE-ELISA; clone carries C-terminal HA and 6xHis tag) VHH: QVQLQESGGGLVQPGGSLRLSCAASGPGFKLDYYAIAWFRQAPGKEREGVSCIGGSGSGLTTYVENSVKDRFTISRDNAQNTVYLHMNSLKPEDTGIYYCAADTYYYCSKRVWRNDYGSWGQGTQVTVSS
 | binds | anti-mouse MMR sdAb clone 1 (VHH, also called anti-mMMR Nb clone 1; anti-mouse MMR clone 1) VHH: QVQLQESGGGLVQPGGSLRLSCAASGNIFSINAIGWYRQAPGKQRELVATITLSGSTNYADSVKGRFSISRDNAKNTVYLQMNSLKPEDTAVYYCNANTYSDSDVYGYWGQGTQVTVSS
